Source: US7208581 (BURNHAM INSTITUTE FOR MEDICAL RESEARCH, dated 2007)

T1: hTRAF4 (complete open reading frame, in vitro translated from pcDNA3-HA-TRAF4) (human, UniProt Q9BUZ4 1-470, 35S-methionine labelled)
T1 construct: mature; also called human TRAF 4; not shown: HA tag of the pcDNA3-HA vector
T1 sequence (looked up): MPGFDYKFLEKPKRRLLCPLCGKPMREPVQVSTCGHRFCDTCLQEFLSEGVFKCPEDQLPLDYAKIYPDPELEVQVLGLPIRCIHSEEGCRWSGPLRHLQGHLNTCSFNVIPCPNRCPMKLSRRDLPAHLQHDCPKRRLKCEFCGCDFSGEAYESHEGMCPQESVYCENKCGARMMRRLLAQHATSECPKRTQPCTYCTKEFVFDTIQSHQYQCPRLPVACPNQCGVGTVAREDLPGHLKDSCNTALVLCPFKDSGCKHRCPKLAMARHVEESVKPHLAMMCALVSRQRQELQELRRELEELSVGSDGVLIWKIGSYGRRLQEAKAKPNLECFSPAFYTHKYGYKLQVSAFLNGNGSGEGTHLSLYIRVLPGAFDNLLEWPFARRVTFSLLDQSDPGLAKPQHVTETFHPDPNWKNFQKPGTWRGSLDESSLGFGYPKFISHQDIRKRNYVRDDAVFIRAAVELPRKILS

T2: hTRAF 2 (complete open reading frame, in vitro translated from pcDNA3-HA-TRAF2) (human, UniProt Q12933 2-501, 35S-methionine labelled)
T2 construct: mature; also called human TRAF 2; not shown: HA tag of the pcDNA3-HA vector
T2 sequence (looked up): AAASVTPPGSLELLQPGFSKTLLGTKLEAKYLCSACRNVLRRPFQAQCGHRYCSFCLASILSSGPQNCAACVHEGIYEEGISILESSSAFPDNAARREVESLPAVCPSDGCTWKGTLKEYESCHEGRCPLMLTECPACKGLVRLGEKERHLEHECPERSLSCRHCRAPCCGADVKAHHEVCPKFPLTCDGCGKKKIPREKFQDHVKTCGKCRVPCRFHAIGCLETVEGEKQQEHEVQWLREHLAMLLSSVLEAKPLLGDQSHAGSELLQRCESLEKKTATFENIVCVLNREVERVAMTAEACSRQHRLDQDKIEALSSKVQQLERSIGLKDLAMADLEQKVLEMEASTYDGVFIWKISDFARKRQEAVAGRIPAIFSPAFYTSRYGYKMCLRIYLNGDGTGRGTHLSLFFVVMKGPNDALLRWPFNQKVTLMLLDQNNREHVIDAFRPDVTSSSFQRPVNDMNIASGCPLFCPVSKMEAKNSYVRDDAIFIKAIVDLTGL

T3: full-length I-TRAF (in vitro translated) (UniProt Q92844 1-425, limits assumed, 35S-methionine labelled)
T3 construct: mature
T3 sequence (looked up): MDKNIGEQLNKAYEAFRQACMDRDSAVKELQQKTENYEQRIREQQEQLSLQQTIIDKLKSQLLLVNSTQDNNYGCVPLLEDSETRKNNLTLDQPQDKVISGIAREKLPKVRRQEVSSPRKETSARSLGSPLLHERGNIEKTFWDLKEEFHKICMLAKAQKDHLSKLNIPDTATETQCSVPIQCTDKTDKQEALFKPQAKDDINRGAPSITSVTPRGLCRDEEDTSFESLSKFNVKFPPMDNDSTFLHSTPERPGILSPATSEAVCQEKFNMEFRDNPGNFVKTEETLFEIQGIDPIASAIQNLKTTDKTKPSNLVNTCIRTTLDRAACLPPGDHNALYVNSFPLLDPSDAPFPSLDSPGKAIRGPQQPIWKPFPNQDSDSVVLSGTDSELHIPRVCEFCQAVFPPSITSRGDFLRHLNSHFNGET

B1: GST-Fas(ct) (receptor, UniProt P25445 191-335, looked up)
chain: KRKEVQKTCRKHRKENQGSHESPTLNPETVAINLSDVDLSKYITTIAGVMTLSQVKGFVRKNGVNEAKIDEIKNDNVQDTAEQKVQLLRNWHQLHGKKEAYDTLIKDLKKANLCTLAEKIQTIILKDITSDSENSNFRNEIQSLV
notes: domain: cytosolic domain; not shown: glutathione S-transferase tag of plasmid pGEX-Fas(ct)
B2: GST-TNF-R2(ct) (receptor, UniProt P20333 288-461, looked up)
chain: KKKPLCLQREAKVPHLPADKARGTQGPEQQHLLITAPSSSSSSLESSASALDRRAPTRNQPQAPGVEASGAGEARASTGSSDSSPGGHGTQVNVTCIVNVCSSSDHSSQCSSQASSTMGDTDSSPSESPKDEQVPFSKEECAFRSQLETPETLLGSTEEKPLPLGVPDAGMKPS
notes: domain: cytosolic domain; Plasmid provided by Dr. C; Ware; also called TNF-receptor 2; not shown: glutathione S-transferase tag of plasmid pGEX-TNF-R2(ct)
B3: GST-DR4(ct) (receptor, UniProt O00220 263-468, looked up)
chain: CIGSGCGGDPKCMDRVCFWRLGLLRGPGAEDNAHNEILSNADSLSTFVSEQQMESQEPADLTGVTVQSPGEAQCLLGPAEAEGSQRRRLLVPANGADPTETLMLFFDKFANIVPFDSWDQLMRQLDLTKNEIDVVRAGTAGPGDALYAMLMKWVNKTGRNASIHTLLDALERMEERHAREKIQDLLVDSGKFIYLEDGTGSAVSLE
notes: domain: cytosolic domain; not shown: glutathione S-transferase tag of plasmid pGEX-DR4(ct)
B4: GST-CD40(ct) (receptor, UniProt P25942 216-277, looked up)
chain: KKVAKKPTNKAPHPKQEPQEINFPDDLPGSNTAAPVQETLHGCQPVTQEDGKESRISVQERQ
notes: domain: cytosolic domain; not shown: glutathione S-transferase tag of plasmid pGEX-CD40(ct)
B5: GST-fusion protein containing the cytosolic domain of HVEM (receptor, UniProt Q92956 224-283, looked up)
chain: CVKRRKPRGDVVKVIVSVQRKRQEAEGEATVIEALQAPPDVTTVAVEETIPSFTGRSPNH
notes: domain: cytosolic domain; Only named in the 293T lysate experiment; not shown: glutathione S-transferase tag
B6: GST-LTβR(ct) (receptor, UniProt P36941 249-435, looked up)
chain: KSHPSLCRKLGSLLKRRPQGEGPNPVAGSWEPPKAHPYFPDLVQPLLPISGDVSPVSTGLPAAPVLEAGVPQQQSPLDLTREPQLEPGEQSQVAHGTNGIHVTGGSMTITGNIYIYNGPVLGGPPGPGDLPATPEPPYPIPEEGDPGPPGLSTPHQEDGKAWHLAETEHCGATPSNRGPRNQFITHD
notes: domain: cytosolic domain; also called lymphotoxin-β receptor; not shown: glutathione S-transferase tag of plasmid pGEX-LTβR(ct)
B7: TRAF7 (282-435), not GST-fused (pcDNA3-myc-TRAF7 (282-435)) (other)
chain: FTSELVPSYDSATFVLENFSTLRQRADPVYSPPLQVSGLCWRLKVYPDGNGVVRGYYLSVFLELSAGLPETSKYEYRVEMVHQSCNDPTKNIIREFASDFEVGECWGYNRFFRLDLLANEGYLNPQNDTVILRFQVRSPTFFQKSRDQHWYIT
notes: transfected in the reporter assay; also called in vitro translated TRAF7 (282-435); TRAF domain of TRAF7; not shown: myc tag of the pcDNA3-myc vector
B8: GST-SPOP (1-180) (other)
chain: MSRVPSPPPPAEMSSGPVAESWCYTQIKVVKFSYMWTINNFSFCREEMGEVIKSSTFSSGANDKLKWCLRVNPKGLDEESKDYLSLYLLLVSCPKSEVRAKFKFSILNAKGEETKAMESQRAYRFVQGKDWGFKKFIRRDFLLDEANGLLPDDKLTLFCEVSVVQDSVNISGQNTMNMVK
notes: Bacterial GST fusion purified on glutathione-Sepharose. cDNA amplified from Jurkat cells; also called GST-SPOP fusion protein; GST-fused TPBD of SPOP; not shown: glutathione S-transferase tag encoded by the pGEX4T vector (Pharmacia)
B9: SPOP (1-180), not GST-fused (pcDNA3-myc-SPOP (1-180)) (other)
chain: B8 chain
notes: also called in vitro translated SPOP (1-180); TPBD of SPOP; not shown: myc tag of the pcDNA3-myc vector

Experiments:
GST-HAUSP (1-213) = biological target: T4, GST-HAUSP (1-213) (human, UniProt Q93009 1-213); assay: GST pull-down, 35S in vitro translated protein, SDS-PAGE and fluorography
T4 construct: Bacterial GST fusion purified on glutathione-Sepharose. cDNA amplified from Jurkat cells; also called GST-fused TPBD of HAUSP; HAUSP TPBD; not shown: glutathione S-transferase tag encoded by the pGEX4T vector (Pharmacia)
T4 sequence (Q93009 1-213): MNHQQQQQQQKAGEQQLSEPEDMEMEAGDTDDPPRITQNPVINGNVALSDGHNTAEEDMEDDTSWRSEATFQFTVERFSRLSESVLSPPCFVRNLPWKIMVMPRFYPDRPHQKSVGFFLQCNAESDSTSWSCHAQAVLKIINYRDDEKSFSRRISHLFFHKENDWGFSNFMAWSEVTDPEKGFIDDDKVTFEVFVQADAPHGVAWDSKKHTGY

GST-SPOP (1-180) = biological target: B8; assay: as above
[1] = biological target: B7; assay: GST pull-down from 293T cell lysate, anti-Myc immunoblot
Protocol: Bound TRAF proteins were detected by SDS-PAGE and fluorography.
Equal volumes of the in vitro translation mixtures (10 μl) were incubated with GST-fusion proteins containing the cytosolic domains of different members of the TNF-R family (1 μg)(FAS, TNF-R2, CD40, LTβR, NGFRp75, and DR4) immobilized on glutathione-Sepharose. […] Control GST and other GST control proteins were included in all assays After washing, bound proteins were analyzed by SDS-PAGE followed by fluorography for binding assays using in vitro translated proteins. […] Bound proteins were then detected by standard chemiluminescence assay (ECL; Amersham; Piscataway N.J.).

[2] = biological target: B9; assay: GST pull-down, 35S in vitro translated protein, SDS-PAGE and fluorography
GST-DR4(ct) = biological target: B3; assay: as above
GST-LTβR(ct) = biological target: B6; assay: as above
[3] = biological target: T5, hTRAF5 (complete open reading frame, in vitro translated from pcDNA3-Flag-TRAF5) (human, UniProt O00463 1-557, 35S-methionine labelled); assay: as above
T5 construct: mature; also called human TRAF 5; not shown: Flag tag of the pcDNA3-Flag vector
T5 sequence (O00463 whole entry): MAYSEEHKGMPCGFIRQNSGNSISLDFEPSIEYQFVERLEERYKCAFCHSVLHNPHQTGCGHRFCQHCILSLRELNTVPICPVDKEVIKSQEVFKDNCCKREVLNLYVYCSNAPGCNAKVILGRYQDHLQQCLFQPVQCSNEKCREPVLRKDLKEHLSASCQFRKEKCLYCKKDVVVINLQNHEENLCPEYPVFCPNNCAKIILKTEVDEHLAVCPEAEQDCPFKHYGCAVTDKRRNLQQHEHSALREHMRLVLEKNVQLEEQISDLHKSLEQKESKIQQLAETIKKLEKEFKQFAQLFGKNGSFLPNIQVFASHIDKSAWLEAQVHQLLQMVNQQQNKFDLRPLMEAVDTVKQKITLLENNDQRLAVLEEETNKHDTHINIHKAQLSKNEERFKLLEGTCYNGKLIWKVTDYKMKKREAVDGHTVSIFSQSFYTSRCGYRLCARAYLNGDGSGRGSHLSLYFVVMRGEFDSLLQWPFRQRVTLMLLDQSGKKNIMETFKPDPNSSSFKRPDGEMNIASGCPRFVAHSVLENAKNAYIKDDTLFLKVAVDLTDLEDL

[4] = biological target: T1, hTRAF4 (complete open reading frame, in …); assay: as above
[5] = biological target: T2, hTRAF 2 (complete open reading frame, …); assay: as above
[6] = biological target: T3, full-length I-TRAF (in vitro translated); assay: as above

Binder | binding result (GST-HAUSP (1-213)) | binding result (GST-SPOP (1-180)) | further results
B1 | no binding | no binding | –
B2 | no binding | – | –
B3 | no binding | – | –
B4 | no binding | no binding | –
B5 | – | – | binding result [1]: no binding
B6 | no binding | – | –
B7 | no binding | no binding | –
B8 | – | – | binding result [2]: no binding; binding result (GST-DR4(ct)): no binding; binding result (GST-LTβR(ct)): no binding; binding result [3]: no binding; binding result [4]: no binding; binding result [5]: no binding; binding result [6]: no binding
B9 | no binding | – | –
